Measurements published in the Immune Epitope Database (IEDB).
Values belong to the sequence of their own block, whether it stands above or below them.

Columns and labels:
[1] = target: HLA-A*02:01; assay: IEDB peptide-MHC binding, purified MHC/direct/fluorescence; filed as Kd, often an IC50 or EC50 that approximates it; ≥ and ≤ were set here for values at or beyond the usual limits of such assays
[2] = target: HLA-A*69:01; assay: as above
[3] = target: HLA-C*07:02; assay: as above
[4] = target: HLA-A*32:07; assay: IEDB peptide-MHC binding, purified MHC/competitive/fluorescence; filed as Kd, often an IC50 or EC50 that approximates it; ≥ and ≤ were set here for values at or beyond the usual limits of such assays; conditions: source organism: Cryptosporidium parvum Iowa II
[5] = target: HLA-A*68:23; assay: as above
[6] = target: HLA-B*15:42; assay: as above
[7] = target: HLA-B*27:20; assay: as above
[8] = target: HLA-B*40:13; assay: as above
[9] = target: HLA-B*45:06; assay: as above
[10] = target: HLA-B*83:01; assay: as above
[11] = target: HLA-B*07:02; assay: IEDB peptide-MHC binding, purified MHC/direct/fluorescence; filed as Kd, often an IC50 or EC50 that approximates it; ≥ and ≤ were set here for values at or beyond the usual limits of such assays
[12] = target: HLA-B*15:01; assay: as above
[13] = target: HLA-B*51:01; assay: as above; conditions: source organism: Salmonella enterica
[14] = target: HLA-C*06:02; assay: as above
[15] = target: HLA-C*15:02; assay: as above
[16] = target: HLA-B*46:01; assay: IEDB peptide-MHC binding, purified MHC/competitive/fluorescence; filed as Kd, often an IC50 or EC50 that approximates it; ≥ and ≤ were set here for values at or beyond the usual limits of such assays; conditions: source organism: Salmonella enterica subsp. enterica serovar Typhi
[17] = target: HLA-C*14:02; assay: as above
[18] = target: HLA-B*48:01; assay: as above; conditions: source organism: Vibrio vulnificus YJ016
[19] = target: HLA-C*12:03; assay: IEDB peptide-MHC binding, purified MHC/direct/fluorescence; filed as Kd, often an IC50 or EC50 that approximates it; ≥ and ≤ were set here for values at or beyond the usual limits of such assays
[20] = target: HLA-C*06:02; assay: IEDB peptide-MHC binding, purified MHC/competitive/fluorescence; filed as Kd, often an IC50 or EC50 that approximates it; ≥ and ≤ were set here for values at or beyond the usual limits of such assays; conditions: source organism: Homo sapiens
[21] = target: HLA-B*46:01; assay: IEDB peptide-MHC binding, cellular MHC/competitive/fluorescence; ≥ and ≤ were set here for values at or beyond the usual limits of such assays; conditions: source organism: Human herpesvirus 4 strain B95-8
[22] = target: HLA-B*27:05; assay: IEDB peptide-MHC binding, purified MHC/competitive/fluorescence; ≥ and ≤ were set here for values at or beyond the usual limits of such assays; conditions: source organism: hepatitis C virus genotype 1a
[23] = target: HLA-A*01:01; assay: IEDB peptide-MHC binding, purified MHC/direct/fluorescence; filed as Kd, often an IC50 or EC50 that approximates it; ≥ and ≤ were set here for values at or beyond the usual limits of such assays; conditions: source organism: Escherichia coli
[24] = target: HLA-A*03:01; assay: as above; conditions: source organism: Escherichia coli
[25] = target: HLA-A*11:01; assay: as above; conditions: source organism: Escherichia coli
[26] = target: HLA-A*26:01; assay: as above; conditions: source organism: Escherichia coli
[27] = target: HLA-A*30:01; assay: as above; conditions: source organism: Escherichia coli
[28] = target: HLA-A*31:01; assay: as above; conditions: source organism: Escherichia coli
[29] = target: HLA-B*08:01; assay: as above; conditions: source organism: Escherichia coli
[30] = target: HLA-B*27:05; assay: as above; conditions: source organism: Escherichia coli
[31] = target: HLA-B*40:01; assay: as above; conditions: source organism: Escherichia coli
[32] = target: HLA-B*58:01; assay: as above; conditions: source organism: Escherichia coli
[33] = target: HLA-B*73:01; assay: IEDB peptide-MHC binding, purified MHC/competitive/fluorescence; filed as Kd, often an IC50 or EC50 that approximates it; ≥ and ≤ were set here for values at or beyond the usual limits of such assays; conditions: source organism: Escherichia coli str. K-12 substr. MG1655
[34] = target: HLA-A*01:01; assay: as above; conditions: source organism: Homo sapiens
[35] = target: HLA-A*29:02; assay: as above
[36] = target: HLA-C*04:01; assay: as above; conditions: source organism: Homo sapiens
[37] = target: HLA-A*32:15; assay: as above; conditions: source organism: Salmonella enterica subsp. arizonae serovar 62:z4,z23:-
[38] = source organism: Cryptosporidium parvum
[39] = source organism: Cryptosporidium parvum Iowa II
[40] = source organism: Salmonella enterica subsp. enterica serovar Typhi str. CT18
[41] = source organism: Salmonella enterica subsp. enterica serovar Typhi
[42] = source organism: Escherichia coli
[43] = source organism: Salmonella enterica subsp. arizonae serovar 62:z4,z23:-

Sequence: MQFPGSVGF
Kd [1, 38]: 769 nM
Kd [2, 38]: 3640 nM
Kd [3, 39]: 429 nM
Kd [4]: 1.2 nM
Kd [5, 39]: 42.4 nM
Kd [6, 39]: ≥ 5000 nM
Kd [7, 39]: 0.8 nM
Kd [8, 39]: 0.9 nM
Kd [9, 39]: ≥ 5000 nM
Kd [10, 39]: ≥ 5000 nM

Sequence: YLRNAGAAM
Kd ([11]; source organism: Salmonella enterica): 1.3 nM
Kd ([12]; source organism: Salmonella enterica subsp. enterica serovar Typhimurium str. LT2): 31 nM
Kd [13]: ≥ 20000 nM
Kd [14, 40]: 3620 nM
Kd [15, 40]: 3590 nM
Kd [6, 41]: ≥ 5000 nM
Kd [7, 41]: 186 nM
Kd [9, 41]: ≥ 5000 nM
Kd [16]: 54.7 nM
Kd [10, 41]: ≥ 5000 nM
Kd [17, 41]: 3.6 nM

Sequence: DEHPWQPML
Kd [18]: ≥ 20000 nM

Kd ([19]; source organism: Homo sapiens): 397 nM
Kd ([6]; source organism: Homo sapiens): ≥ 5000 nM
Kd ([9]; source organism: Homo sapiens): ≥ 5000 nM
Kd ([10]; source organism: Homo sapiens): ≥ 5000 nM
Kd [20]: 3790 nM
Kd ([17]; source organism: Homo sapiens): 208 nM
Sequence: VMAPRTLIL

Sequence: FTYPVLEEM
IC50 [21]: 10000 nM

Sequence: GGATICGKY
IC50 [22]: ≥ 750000 nM

Kd [23]: ≥ 20000 nM
Kd [1, 42]: ≥ 20000 nM
Kd [24]: ≥ 20000 nM
Kd [25]: ≥ 20000 nM
Kd [26]: ≥ 20000 nM
Kd [27]: 5.86 nM
Kd [28]: ≥ 20000 nM
Kd [2, 42]: ≥ 20000 nM
Kd [11, 42]: ≥ 20000 nM
Kd [29]: ≥ 20000 nM
Kd [12, 42]: ≥ 20000 nM
Kd [30]: 64.2 nM
Kd [31]: ≥ 20000 nM
Kd [32]: ≥ 20000 nM
Kd [33]: ≥ 20000 nM
Sequence: RRRIGEIFK

Kd ([14]; source organism: Homo sapiens): 14 nM
Kd ([3]; source organism: Homo sapiens): ≤ 1 nM
Kd ([19]; source organism: Homo sapiens): 283 nM
Kd [34]: ≥ 20000 nM
Kd ([35]; source organism: Homo sapiens): ≤ 0.1 nM
Kd ([6]; source organism: Homo sapiens): ≥ 5000 nM
Kd ([9]; source organism: Homo sapiens): ≥ 5000 nM
Kd ([10]; source organism: Homo sapiens): ≥ 5000 nM
Kd [36]: ≥ 5000 nM
Sequence: YYWPRPRRY

Sequence: YTIYGAWMF
Kd [19, 43]: 1200 nM
Kd [15, 43]: 1730 nM
Kd [35, 43]: 0.6 nM
Kd [37]: 79.6 nM
Kd [5, 43]: 0.6 nM
Kd [6, 43]: ≥ 5000 nM
Kd [8, 43]: 397 nM
Kd [9, 43]: ≥ 5000 nM
Kd [10, 43]: ≥ 5000 nM
Kd [17, 43]: 347 nM
